Experimental data reported in paper PMC11784222.

Tests used:
[1] = molecular target: GP5 in the pVC vector (pVC-GP5) (HP-PRRSV-2 strain HuN4); assay: split reporter (BiFC, NanoBiT); BiFC in HEK293T cotransfected with pVN and pVC plasmids, 24 hpt; YFP signal by confocal microscopy and ratio of YFP-positive cells by flow cytometry
[2] = molecular target: N protein in the pVC vector (pVC-N) (HP-PRRSV-2 strain HuN4); assay: as above

Substance | percent of fluorescence-positive cells (BiFC) [1] [%] | percent of fluorescence-positive cells (BiFC) [2] [%]
N protein in the pVN vector (pVN-N) (natural protein) | 3.87 | 
nsp2 in the pVN vector (pVN-nsp2) (natural protein) |  | 32.1
